From the supplement of paper PMC9170038

Tested on: MS2 coat protein
Experiment: apparent KD of MS2 coat protein; designed switch direction (-1 OFF switch, 1 ON switch): -1; higher = weaker reporter binding
Method in brief: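 An oligonucleotide input, 200 uM small-molecule ligand, or no input was present during titration of SNAP-549-labelled MS2 coat protein, which was doubled from 0.7 or 1.5 nM to 3 µM. Designed RNA switches had been transcribed on Illumina chips by stalled E. coli RNA polymerase. Apparent KD per design is the median over clusters of curves fitted to normalised cluster fluorescence.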

[1] = input ligand: microRNA oligo, concentration not stated
[2] = Eterna round: R95, input ligand: FMN 200 uM
[3] = Eterna round: R95, input ligand: microRNA oligo, concentration not stated
[4] = Eterna round: R95, input ligand: none

| Sequence | apparent KD of MS2 coat protein [1] [nM] | apparent KD of MS2 coat protein (input ligand: FMN 200 uM) [nM] | apparent KD of MS2 coat protein (input ligand: none) [nM] | apparent KD of MS2 coat protein [2] [nM] | apparent KD of MS2 coat protein [3] [nM] | apparent KD of MS2 coat protein [4] [nM] |
| --- | --- | --- | --- | --- | --- | --- |
| AGCUGUGGCCGAGGAUAUCUAUCUUCAAUAACCGAAAUAUAAUCGGACAUGAGGAUCACCCAUGUAGAGAAGGCGGUCUCAGCA [Eli eng2 - 091] (Eterna round: R96, puzzle: Exclusion NG 2) | 27.3 |  |  |  |  |  |
| UUUUUAUAUGAAGGAUAUACUUAACAUGAGGAUCACCCAUGUGGUGUUGUGAGUGAGUGAGUUUAGUAGAAGGUCAAUUCUCUU [JMF's solution 81] (Eterna round: R96, puzzle: Exclusion NG 2) | 156 | 989 | 492 |  |  |  |
| AACCAGCGAGGAUAUGCUUGCGCGUGUUCUGGUUGUAAUCGACUUGAGGAUCACCCAAGUAGAAGGCGCUGCCG [EX2 #51] (Eterna round: R97, puzzle: Exclusion 2) |  | 100 | 50.9 |  |  |  |
| GAGUGACAUGAGGAUCACCCAUGUGAGGAUAUCCGAUGGACCAAAUUAACAAUAGAAGGGAGAAGGCACAUAAA [Exclusion 1 V7] (puzzle: Exclusion 1) |  |  |  | 162 | 127 | 131 |
| GAGGCAUGCCGAGGUCCACACAUGAGGAUCACCCAUGUCAUGACAGGCUUUUUACUCGUUUUAUCGCUAUCGCGUUC [Vebizaledi] (puzzle: Sensor v3, turn-off variant 1) |  |  |  | 84.8 | 159 | 70.7 |
| GCGCUGCGAGGAUAUACAUGAGGAUCACCCAUGUGUCGGCAGCCAUGGUAGUACAAAUGUAGAAGGCGCGUAAA [EX3 #51] (Eterna round: R97, puzzle: Exclusion 3) |  | 202 | 165 |  |  |  |
| ACAAGCUUUUUCGUGGGUGACAUGAGGAUCACCCAUGUUUGCCACGUCUUGUGGGCCCGGGCCCGCGGCCCGGGCCC [-44.6, -64.9, A 13%] (Eterna round: R97, puzzle: Sensor, turn-off variant 1) |  | 45.8 | 47.1 |  |  |  |
| AUGGGUCCUCACGGAGCUACAUGAGGAUCACCCAUGUGGAUUGAGGAUAUCGACAGCCGACGGCUCGAGAAGGCAGUUUACUGU [Ex NG3 #96] (Eterna round: R96, puzzle: Exclusion NG 3) | 23.2 | 35 | 26.4 |  |  |  |
| AGCUAGUCAGGAUAUUCUAUUAAUUACAUGAGGAUCACCCAUGUGAAUGGACAAGGGUGUGAAGAAGGGACUAGCG [Omei Ex5 A13] (Eterna round: R97, puzzle: Exclusion 5) |  | 394 | 2080 |  |  |  |
| ACAUGUAUUGCAGGAUAUGGGACACAUGAGGAUCACCCAUGUGACCAUAUGUAAUGCUAAGAGUCUCAGAAGGGUAUGUACAUG [Ex NG2 #45] (Eterna round: R96, puzzle: Exclusion NG 2) | 8.59 | 10.7 | 11.4 |  |  |  |
| AGAAGACAUGAGGAUCACCCAUGUAAGGAUAUUGGAGGUUAGGGAUGCUGGAGUUGGACAAGAAGGUACAGGUG [JR_Exclu1_Sub091] (puzzle: Exclusion 1) |  |  |  |  | 46.9 |  |
| AGCUGUGGCCGAGGAUAUCCACAUGAGGAUCACCCAUGUGAAUAGGGAAUUAACCCAUAACCGUGGGAGAAGGCGGUCUCAGCA [Eli eng2 - 049] (Eterna round: R96, puzzle: Exclusion NG 2) | 48.6 | 55.1 | 82.1 |  |  |  |
| GCAAGCGACUAGGCUCGUCUUAUAUUGAAAAGAUUGAAAACAUGAGGAUCACCCAUGUAUGUGGGAAAGUUGAAGUG [JR_SV3TOV2_Sub010] (puzzle: Sensor v3, turn-off variant 2) |  |  |  | 393 | 526 | 332 |
| UAAUAAAGUGUGAGGAUAUGCUGGUCCUUGGAUCAGCAGAAGGCACAUGAGGAUCACCCAUGUAAUAUAUAAAU [Mat - Exclusion 4 - JL Mod - D55] (puzzle: Brourd's mod of Exclusion 4) |  |  |  |  | 70.4 |  |
| CGUGACUCAGGAUAUCUAUAAUAUCACAUGAGGAUCACCCAUGUCCAGCGAAAGCUGGAGGGAGAAGGGAGUCACG [Fiskers Ex 5 - 35] (puzzle: Exclusion 5) |  |  |  | 32.8 | 164 | 146 |
| GGAAAGCAAGGAUAUACGAGGAGAAGGAGGAAAGUAAAAGGACAUGAGGAUCACCCAUGUAGAAGGUGCGAGAG [JR_Exclu2_Sub040] (puzzle: Exclusion 2) |  |  |  | 27.6 | 29.7 | 32.9 |
| ACAUGAGGAUCACCCAUGUGACAAUAAUGGCUGAUAUAGAAACAGGAUAUUCGUGAAUAUCUAACGAAGAAGGGUUAUGACUGG [Deportation 67 - Jieux - Exclusion NG 3] (Eterna round: R96, puzzle: Exclusion NG 3) | 38.3 | 49 | 51.8 |  |  |  |
| GCUGGUCGAGGAUAUGCAAUCGUGCUUCGGCACGUAAGGUCACAUGAGGAUCACCCAUGUAGAAGGCGACCAGC [E2/4-A1] (Eterna round: R97, puzzle: Exclusion 2) |  | 32.5 | 19.2 |  |  |  |

| Sequence | apparent KD of MS2 coat protein [1] [nM] | apparent KD of MS2 coat protein (input ligand: FMN 200 uM) [nM] | apparent KD of MS2 coat protein (input ligand: none) [nM] | apparent KD of MS2 coat protein [2] [nM] | apparent KD of MS2 coat protein [3] [nM] | apparent KD of MS2 coat protein [4] [nM] |
| --- | --- | --- | --- | --- | --- | --- |
| UCGCUGCGAGGAUAUACAUGAGGAUCACCCAUGUACGGGUCCGGGUUUUCGUCCAUUAGUAGAAGGCGCAGUGA [JL Laongeedie mod 1] (puzzle: Exclusion 3) |  |  |  |  | 136 |  |
| GUCAGCUCGUGAGGAUAUACAUGCGUGCUUCGGCACGAAUUUAAGAUCACAUGAGGAUCACCCAUGUAGAAGGCACGAGCUGAC [ENG2/3-A1] (Eterna round: R96, puzzle: Exclusion NG 2) | 472 | 137 | 591 |  |  |  |
| GCAGGUCAAGGAUAUACAUGAGGAUCACCCAUGUGAUUAGCAGUCCUCGGACUGCAAUGUAGAAGGUGACCUGC [E3/2-C2] (Eterna round: R97, puzzle: Exclusion 3) |  | 2140 | 329 |  |  |  |
| ACCUCACAUGAGGAUCACCCAUGUUAGGAUAUCUCGGCGCCCUGUAGGCAGUAGCGCCAGAGAAGGAACGUGCA [Gearorso] (puzzle: Exclusion 1) |  |  |  |  | 19.8 |  |
| ACAUGUAAUGCAGGAUAUGGGACACAUGAGGAUCACCCAUGUGACCAUAUGUAAUGCUAAGAGUCUCAGAAGGGUAUGUACAUG [Ex NG2 #46] (Eterna round: R96, puzzle: Exclusion NG 2) | 7.56 | 15.2 | 12.9 |  |  |  |
| ACAAGCUUAAUCAGUAAGAACAUGAGGAUCACCCAUGUAAAAGGGAAGACAAUUGGGUUAUUUAAAGCUCGUCUUAU [JR_STOV1_Sub015] (Eterna round: R97, puzzle: Sensor, turn-off variant 1) |  | 62.7 | 111 |  |  |  |
| ACCUCACAUGAGGAUCACCCAUGUCAGGAUAUACAAACCGUGUAAAGACACGGUCGUAGUAGAAGGGACUAUGG [Telalebees] (puzzle: Exclusion 1) |  |  |  |  | 59.1 |  |
| CAUUAUUAUCGAGGAUAUCCUAUUGAAAUUCUGGGAGAAGGCGGACUCAACAUGAGGAUCACCCAUGUGGGACGGAUGCUAGGC [salish99_exng1_r04_601] (Eterna round: R96, puzzle: Exclusion NG 1) | 15.6 | 14.2 | 19.3 |  |  |  |
| UGUACGAUGCGUGCUGACAUGCGUCGUGCAGCAGGUGGAACAUGAGGAUCACCCAUGUCCUCAUUUGCUCGUCUUGU [SL-sv3-2.10 JL mod] (puzzle: Sensor v3, turn-off variant 2) |  |  |  | 54.7 | 140 | 52.3 |
| GGUUGGCGAGGAUAUACAUGAGGAUCACCCAUGUGAGAAAGAAAAGUGAGGAAGAAAAGUAGAAGGCGCUGACG [Mat - Exclusion 3 - Mod of Salish D2] (puzzle: Exclusion 3) |  |  |  | 583 | 53.4 | 99.8 |
| UGAAAGUGAGGAUAUCCAAUAUAUGACAUGAGGAUCACCCAUGUUUCCACUCGUACCUCCGGAGAAGGCACAAAGU [Ex5 #58] (Eterna round: R97, puzzle: Exclusion 5) |  | 26.2 | 28.8 |  |  |  |
| CAGUACUGAGGAUAUACAUGAGGAUCACCCAUGUGAUUCAGUGCACGCGUACGUGUACGUAGAAGGCAGUACUG [JL 3.27 m2] (Eterna round: R97, puzzle: Exclusion 3) |  | 761 | 49 |  |  |  |
| AUAUUGUGAGGAUAUGAACUUAGUAUCGAAAGAUACUUAGUUCAGAAGGCACAUGAGGAUCACCCAUGUUUCUC [Long static hairpin v17] (Eterna round: R97, puzzle: Exclusion 4) |  | 883 | 69.8 |  |  |  |
| UGGUCACAUGAGGAUCACCCAUGUCAGGAUAUCUACAUUGAAGCCUCGGCUUCAAUGUAGAGAAGGGACAUAAU [E1/6-B2] (Eterna round: R97, puzzle: Exclusion 1) |  | 121 | 265 |  |  |  |
| AAUCAUGAACGAGCUUUUUACAUGAGGAUCACCCAUGUCCUCUGCUCGUCUUGUCUUGGGCUUUUUUUGGGUUCGGG [-22.4, -44.7 kcal, A 16%] (Eterna round: R97, puzzle: Sensor, turn-off variant 1) |  | 320 | 355 |  |  |  |
| AACCGUGCGGAGGAUAUUGAUAUCCCAGUCUAUCAAGAAGGCUGCACAUGAGGAUCACCCAUGUGAUCCGUGCU [Riri] (puzzle: Exclusion 6) |  |  |  |  | 23.6 |  |
| AGAUCGAGUGUGAGGAUAUUGACCGGACGACCCAUCGAGAAGGCACAUGAGGAUCACCCAUGUGAUUCGGUUCA [Brourd's EX4 #57] (Eterna round: R97, puzzle: Brourd's mod of Exclusion 4) |  | 27.1 | 15.4 |  |  |  |
